Read-outs that look alike come from different tables or passages of the source.
What was measured:
HLA-A*0301 (human) = assay: competitive inhibition of 125I-labelled standard peptide binding to purified HLA-A*0301, gel filtration
HLA-A*2402 (human) [1] = molecular target: HLA-A*2402 (human)
HLA-A*0201 (human) [2] = assay: competition with 125I-labeled standard peptide for purified HLA-A*0201, gel filtration
HLA-A*0201 (human) [3] = assay: inhibition of binding of 125I-labelled standard peptide to purified HLA, gel filtration
HLA-A*2402 (human) [4] = molecular target: HLA-A*2402 (human); remark: listed apart in the source
[5] = remark: other sources report otherwise

CVQSTHVDIR (modifications not checked) [HPV16 E7 68 …]
relative binding ratio (IC50 of standard peptide / IC50 of test peptide) (ratio to standard peptide) (HLA-A*0301 (human)): 0.0049

GIVCPICSQK (modifications not checked) [HPV16 E7 88 …]
relative binding ratio (IC50 of standard peptide / IC50 of test peptide) (ratio to standard peptide) (HLA-A*0301 (human); [5]): 0.0003

PYKLPDLCTEL (modifications not checked) [HPV45 E6 11 peptide … (SEQ ID NO: 15737)]
relative binding ratio (IC50 of standard peptide / IC50 of test peptide) (HLA-A*2402 (human) [1]): 0.0064

KLVVESSA (modifications not checked) [HPV18 E7 peptide KLVVESSA (position 73, 8 amino acids)]
relative binding ratio (IC50 of standard peptide / IC50 of test peptide) (ratio to standard peptide) (HLA-A*0201 (human) [2]): 0.0001

MLDLQPETT (modifications not checked) [HPV16 E7 peptide … (position 12, 9 amino acids)]
relative binding ratio (IC50 of standard peptide / IC50 of test peptide) (HLA-A*0201 (human) [3]; [5]): 0.0028

VVESSADDL (modifications not checked) [HPV18 E7 peptide … (position 75, 9 amino acids)]
relative binding ratio (IC50 of standard peptide / IC50 of test peptide) (ratio to standard peptide) (HLA-A*0201 (human) [2]): 0.0003

VYRDGNPY (modifications not checked) [HPV16 E6 60 VYRDGNPY]
relative binding ratio (IC50 of standard peptide / IC50 of test peptide) (HLA-A*2402 (human) [1]): 0.0001

VFEFAFKDLF (modifications not checked) [… (HPV18 E6, position 44, 10 amino acids)]
relative binding ratio (IC50 of standard peptide / IC50 of test peptide) (HLA-A*2402 (human) [4]): 0.036

KLVVESSADDL (modifications not checked) [HPV18 E7 peptide … (position 73, 11 amino acids)]
relative binding ratio (IC50 of standard peptide / IC50 of test peptide) (ratio to standard peptide) (HLA-A*0201 (human) [2]): 0.0001

TIHDIILECV (modifications not checked) [HPV16 E6 peptide … (position 29, 10 amino acids)]
relative binding ratio (IC50 of standard peptide / IC50 of test peptide) (HLA-A*0201 (human) [3]): 0.021

FYSRIREL (modifications not checked) [HPV45 E6 71 peptide FYSRIREL (SEQ ID NO: 15714)]
relative binding ratio (IC50 of standard peptide / IC50 of test peptide) (HLA-A*2402 (human) [1]): 0.026

IVCPICSQK (modifications not checked) [HPV16 E7 89 …]
relative binding ratio (IC50 of standard peptide / IC50 of test peptide) (ratio to standard peptide) (HLA-A*0301 (human); [5]): 0.0077

CYSLYGTTL (modifications not checked) [HPV16 E6 87 …]
relative binding ratio (IC50 of standard peptide / IC50 of test peptide) (ratio to standard peptide) (HLA-A*2402 (human) [4]): 0.046
binding affinity ratio (IC50 of standard peptide / IC50 of test peptide) (HLA-A*2402 (human) [1]): 0.046

HLEPQNEI (modifications not checked) [HPV18 E7 peptide HLEPQNEI (position 14, 8 amino acids)]
relative binding ratio (IC50 of standard peptide / IC50 of test peptide) (ratio to standard peptide) (HLA-A*0201 (human) [2]): 0.0001

DIRTLEDL (modifications not checked) [HPV16 E7 peptide DIRTLEDL (position 75, 8 amino acids)]
relative binding ratio (IC50 of standard peptide / IC50 of test peptide) (HLA-A*0201 (human) [3]): 0.0001

CCKCDSTLR (modifications not checked) [HPV16 E7 58 …]
relative binding ratio (IC50 of standard peptide / IC50 of test peptide) (ratio to standard peptide) (HLA-A*0301 (human)): 0.0003

LYNLLIRCL (modifications not checked) [… (HPV18 E6, position 98, 9 amino acids)]
relative binding ratio (IC50 of standard peptide / IC50 of test peptide) (HLA-A*2402 (human) [4]): 0.0001

RLCVQSTHV (modifications not checked) [HPV16 E7 peptide … (position 66, 9 amino acids)]
relative binding ratio (IC50 of standard peptide / IC50 of test peptide) (HLA-A*0201 (human) [3]; [5]): 0.0003

LYNLLIRCL (modifications not checked) [HPV18 E6 98-106 peptide …]
relative binding ratio (IC50 of standard peptide / IC50 of test peptide) (ratio to standard peptide) (HLA-A*2402 (human) [1]): 0.0001

RTLEDLLMGT (modifications not checked) [HPV16 E7 peptide … (position 77, 10 amino acids)]
relative binding ratio (IC50 of standard peptide / IC50 of test peptide) (HLA-A*0201 (human) [3]; [5]): 0.0006

FYSRIRELRHY (modifications not checked) [HPV18 E6 71-81 peptide …]
relative binding ratio (IC50 of standard peptide / IC50 of test peptide) (ratio to standard peptide) (HLA-A*2402 (human) [1]): 0.0052

GVNHQHLPA (modifications not checked) [HPV18 E7 peptide … (position 43, 9 amino acids)]
relative binding ratio (IC50 of standard peptide / IC50 of test peptide) (ratio to standard peptide) (HLA-A*0201 (human) [2]): 0.0001

PYKLPDLCTEL (modifications not checked) [… (HPV18 E6, position 11, 11 amino acids)]
relative binding ratio (IC50 of standard peptide / IC50 of test peptide) (HLA-A*2402 (human) [4]): 0.0064

PYKLPDLCTEL (modifications not checked) [HPV45 E6 position 11 peptide … (SEQ ID NO: 46119)]
binding affinity ratio (IC50 of standard peptide / IC50 of test peptide) (HLA-A*2402 (human) [4]): 0.0064

VLHLEPQNEI (modifications not checked) [HPV18 E7 peptide … (position 12, 10 amino acids)]
relative binding ratio (IC50 of standard peptide / IC50 of test peptide) (ratio to standard peptide) (HLA-A*0201 (human) [2]): 0.0001

FYSRIREL (modifications not checked) [FYSRIREL (HPV18 E6, position 71, 8 amino acids)]
relative binding ratio (IC50 of standard peptide / IC50 of test peptide) (HLA-A*2402 (human) [4]): 0.026

YCKQQLLRR (modifications not checked) [HPV16 E6 39 …]
relative binding ratio (IC50 of standard peptide / IC50 of test peptide) (ratio to standard peptide) (HLA-A*0301 (human)): 0.0003

KLPDLCTEL (modifications not checked) [HPV45 E6 13 peptide … (SEQ ID NO: 15726)]
relative binding ratio (IC50 of standard peptide / IC50 of test peptide) (HLA-A*2402 (human) [1]; [5]): 0.0013

FYSRIREL (modifications not checked) [HPV18 E6 71-78 peptide FYSRIREL]
relative binding ratio (IC50 of standard peptide / IC50 of test peptide) (ratio to standard peptide) (HLA-A*2402 (human) [1]): 0.026

LYNLLIRCL (modifications not checked) [HPV45 E6 position 98 peptide … (SEQ ID NO: 46118)]
binding affinity ratio (IC50 of standard peptide / IC50 of test peptide) (HLA-A*2402 (human) [4]): 0.0001

MLDLQPET (modifications not checked) [HPV16 E7 peptide MLDLQPET (position 12, 8 amino acids)]
relative binding ratio (IC50 of standard peptide / IC50 of test peptide) (HLA-A*0201 (human) [3]; [5]): 0.0001

MLDLQPETTDL (modifications not checked) [HPV16 E7 peptide … (position 12, 11 amino acids)]
relative binding ratio (IC50 of standard peptide / IC50 of test peptide) (HLA-A*0201 (human) [3]): 0.0005

HGDTPTLHEY (modifications not checked) [HPV16 E7 2 …]
relative binding ratio (IC50 of standard peptide / IC50 of test peptide) (ratio to standard peptide) (HLA-A*0301 (human); [5]): 0.0001

PYAVCDKCL (modifications not checked) [HPV16 E6 66 …]
relative binding ratio (IC50 of standard peptide / IC50 of test peptide) (ratio to standard peptide) (HLA-A*2402 (human) [4]): 0.0078
relative binding ratio (IC50 of standard peptide / IC50 of test peptide) (HLA-A*2402 (human) [1]): 0.0078

LLMGTLGI (modifications not checked) [HPV16 E7 peptide LLMGTLGI (position 82, 8 amino acids)]
relative binding ratio (IC50 of standard peptide / IC50 of test peptide) (HLA-A*0201 (human) [3]): 0.0008

HVDIRTLEDL (modifications not checked) [HPV16 E7 peptide … (position 73, 10 amino acids)]
relative binding ratio (IC50 of standard peptide / IC50 of test peptide) (HLA-A*0201 (human) [3]): 0.0001

MLCMCCKCEA (modifications not checked) [HPV18 E7 peptide … (position 61, 10 amino acids)]
relative binding ratio (IC50 of standard peptide / IC50 of test peptide) (ratio to standard peptide) (HLA-A*0201 (human) [2]): 0.0016

FYSRIREL (modifications not checked) [HPV45 E6 position 71 peptide FYSRIREL (SEQ ID NO: 46116)]
binding affinity ratio (IC50 of standard peptide / IC50 of test peptide) (HLA-A*2402 (human) [4]): 0.026

LYNLLIRCL (modifications not checked) [HPV45 E6 98 peptide … (SEQ ID NO: 15730)]
relative binding ratio (IC50 of standard peptide / IC50 of test peptide) (HLA-A*2402 (human) [1]): 0.0001

DFAFRDLCI (modifications not checked) [HPV16 E6 51 …]
relative binding ratio (IC50 of standard peptide / IC50 of test peptide) (ratio to standard peptide) (HLA-A*2402 (human) [4]): 0.0003
binding affinity ratio (IC50 of standard peptide / IC50 of test peptide) (HLA-A*2402 (human) [1]): 0.0003

DLQPETTDL (modifications not checked) [HPV16 E7 peptide … (position 14, 9 amino acids)]
relative binding ratio (IC50 of standard peptide / IC50 of test peptide) (HLA-A*0201 (human) [3]): 0.0003

CLDCKWGVLI (modifications not checked) [HPV18 E1 273 peptide …]
relative binding ratio (IC50 of standard peptide / IC50 of test peptide) (ratio to standard peptide) (HLA-A*0201 (human) [2]): 0.0002

AVFKDTYGL (modifications not checked) [HPV18 E1 216 peptide …]
relative binding ratio (IC50 of standard peptide / IC50 of test peptide) (ratio to standard peptide) (HLA-A*0201 (human) [2]): 0.014

VYCKTVLEL (modifications not checked) [… (HPV18 E6, position 33, 9 amino acids)]
relative binding ratio (IC50 of standard peptide / IC50 of test peptide) (HLA-A*2402 (human) [4]): 0.022

RFHNIRGRW (modifications not checked) [HPV16 E6 131 …]
relative binding ratio (IC50 of standard peptide / IC50 of test peptide) (ratio to standard peptide) (HLA-A*2402 (human) [4]; [5]): 0.022
relative binding ratio (IC50 of standard peptide / IC50 of test peptide) (HLA-A*2402 (human) [1]; [5]): 0.022

VYCKQQLL (modifications not checked) [HPV16 E6 38 VYCKQQLL]
relative binding ratio (IC50 of standard peptide / IC50 of test peptide) (ratio to standard peptide) (HLA-A*2402 (human) [4]): 0.0069
relative binding ratio (IC50 of standard peptide / IC50 of test peptide) (HLA-A*2402 (human) [1]): 0.0069

LVVESSADDL (modifications not checked) [HPV18 E7 peptide … (position 74, 10 amino acids)]
relative binding ratio (IC50 of standard peptide / IC50 of test peptide) (ratio to standard peptide) (HLA-A*0201 (human) [2]): 0.0001

LMGTLGIV (modifications not checked) [HPV16 E7 peptide LMGTLGIV (position 83, 8 amino acids)]
relative binding ratio (IC50 of standard peptide / IC50 of test peptide) (HLA-A*0201 (human) [3]): 0.0001

FLNTLSFV (modifications not checked) [HPV18 E7 peptide FLNTLSFV (position 90, 8 amino acids)]
relative binding ratio (IC50 of standard peptide / IC50 of test peptide) (ratio to standard peptide) (HLA-A*0201 (human) [2]): 0.0079

KLPDLCTEL (modifications not checked) [HPV18 E6 13-21 peptide …]
relative binding ratio (IC50 of standard peptide / IC50 of test peptide) (ratio to standard peptide) (HLA-A*2402 (human) [1]; [5]): 0.0013

DLLMGTLGIV (modifications not checked) [HPV16 E7 peptide … (position 81, 10 amino acids)]
relative binding ratio (IC50 of standard peptide / IC50 of test peptide) (HLA-A*0201 (human) [3]; [5]): 0.0005

DLLMGTLGI (modifications not checked) [HPV16 E7 peptide … (position 81, 9 amino acids)]
relative binding ratio (IC50 of standard peptide / IC50 of test peptide) (HLA-A*0201 (human) [3]): 0.0002

RAFQQLFLNT (modifications not checked) [HPV18 E7 peptide … (position 84, 10 amino acids)]
relative binding ratio (IC50 of standard peptide / IC50 of test peptide) (ratio to standard peptide) (HLA-A*0201 (human) [2]): 0.0003

HLEPQNEIPV (modifications not checked) [HPV18 E7 peptide … (position 14, 10 amino acids)]
relative binding ratio (IC50 of standard peptide / IC50 of test peptide) (ratio to standard peptide) (HLA-A*0201 (human) [2]): 0.0001
